Results published in EP4814019A1 (Zhejiang University, dated 2026).

Target: T1, …-HLA A0201 complex (human, biotinylated with BirA (site not stated))
T1 construct: Held on streptavidin in the ELISA and in SPR; also called NY-ESO-1 antigen; positive antigen NY-ESO-1
Assay: SPR (BIAcore), biotinylated pMHC on streptavidin-coupled CM5 chip, nanobody as analyte

Binder | Kd [nM]
NY-ESO-1-VHH-9 (VHH, Synthetic nanobody from a yeast display library) VHH: QVQLQESGGGLVQAGGSLRLSCAASGYISYLNTMGWYRQAPGKEREFVATIGQGSSTYYADSVKGRFTISRDNAKNTVYLQMNSLKPEDTAVYYCADQLGYWGQGTQVTVSS | 1170
NY-ESO-1-VHH-4 (VHH, Synthetic nanobody from a yeast display library) VHH: QVQLQESGGGLVQAGGSLRLSCAASGNIFYPQYMGWYRQAPGKEREFVAAISDGASTYYADSVKGRFTISRDNAKNTVYLQMNSLKPEDTAVYYCADLWYWGQGTQVTVSS | 102

Now those with a lower Kd, led by results:

Kd [nM] | Binder
96.6 | NY-ESO-1-VHH-1 (VHH, Synthetic nanobody from a yeast display library) VHH: QVQLQESGGGLVQAGGSLRLSCAASGTIFHQIDMGWYRQAPGKERELVAAIGTGSSTYYADSVKGRFTISRDNAKNTVYLQMNSLKPEDTAVYYCAAWHYYWGQGTQVTVSS
68.1 | NY-ESO-1-VHH-5 (VHH, Synthetic nanobody from a yeast display library) VHH: QVQLQESGGGLVQAGGSLRLSCAASGNISAVYTMGWYRQAPGKEREFVAAIDYGGSTYYADSVKGRFTISRDNAKNTVYLQMNSLKPEDTAVYYCASYYHGYWGQGTQVTVSS
